Patent publication US20190271710A1 (Janssen / Centocor, published 2019)
Each block holds one binder with its values, some of them ahead of it.

Legend:
[1] = target: T1, calibrant peptide pT3xhT43 (two phosphothreonines (pT) in GSRSR(pT)PSLP(pT)PPTREPKKV; dPEG4 linkers between the three segments; C-terminal amide); test: Simoa pT3xhT43 sandwich assay, calibrant titrated 30 to 0.041 pg/ml
T1 construct: Molecular weight 6893 g/mol
T1 peptide: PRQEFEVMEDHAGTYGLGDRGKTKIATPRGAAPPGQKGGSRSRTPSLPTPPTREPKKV
Procedure: (§1) The calibrant peptides were reconstituted to 5 mg/ml in 0.1% phosphoric acid/water, aliquoted to 20 ul and frozen. When ready for use, the calibrant peptide aliquots were thawed and diluted 1:1000 (e.g. 1.5 ul into 1498.5 ul), and the dilutions were diluted […] so that the final concentration of the peptides was 5000 pg/ml. A standard curve with 3× jumps was made, starting at 30 pg/ml.
(§2) Calibrant peptides described in Example 1 were produced. The calibrant peptides contained the core epitopes of pT3 and hT43, or pT3 and pT82 separated by PEG4 linkers, and they were used to generate standard curves. Calibrant peptides were titrated from 30 pg/ml to 0.041 pg/ml in 1:3 jumps in assay buffer and measured with the pT3xhT43 and pT3xpT82 assays. A 4-parameter curve fit data reduction method (4PL, 1/y2 weighted) was used to generate the calibration curve. The lower limit of detection (LLOD) was defined as the calculated calibrant level yielding an AEB equal to the average of the zero calibrator+2.5 standard deviations (SD), including 10% coefficient of variation (CV). With these criteria, the representative data yielded an LLOD of 0.002 pg/ml. The Linear Range of the assay, lower limit of quantification (LLOQ) and upper limit of quantification (ULOQ), was defined as the lowest and highest standard curve points achieving CV<20% and recovery 80-120% of expected. […]

[2] = target: T2, calibrant peptide pT3xpT82 (N-terminal acetyl; dPEG4 linker between the two segments; two phosphothreonines (pT) in GSRSR(pT)PSLP(pT)PPTREPKKV; C-terminal amide); test: Simoa pT3xpT82 sandwich assay, calibrant titrated 30 to 0.041 pg/ml
T2 construct: Molecular weight 4551 g/mol
T2 peptide: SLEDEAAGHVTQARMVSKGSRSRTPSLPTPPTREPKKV
Procedure: as §1, §2

- binding result [1]: binds
B1: pT3 mouse monoclonal antibody (antibody, V domains shown)
VH: EVKLVESGGDLVKPGGSLKLSCAASGFTFSSYAMSWVRQNPEKRLEWVASISKGGNTYYPNSVKGRFTISRDNARNILYLQMSSLRSEDTALYYCARGWGDYGWFAYWGQVTLVTVSA
VL: DIKMTQSPSSMYASLGERVTITCKASQDINRYLNWFQQKPGKSPKTLIYRANRLLDGVPSRFSGSGSGQDYSLTISSLDYEDMGIYYCLQYDEFPLTFGDGTKLELK
notes: Parental mouse mAb expressed by a mouse hybridoma; Used on capture beads, and as soluble antibody in spiking experiments; also called pT3 mAb

- binding result [2]: binds
B2: pT82 mAb (antibody, V domains shown)
VH: EVKLEESGGGLVQPGGSMKLSCVASGFTFSNYWMNWIRQSPEKGLEWVAQIRLQSDNYATRYAESVKGRFTISRDESKTSVYLQMNNLRTEDTGIYYCTGGTTYWGQGTLVTVSA
VL: DIVMTQSQKFMSTSVGDRVSITCKASQNVGTAVAWYQQKPGQSPKLLIYSASIRYTGVPDRFTGSGSGTDFTLTINYMQSEDLADYFCQQFSSYPYTFGGGTKLEIK
notes: The majority assignment is used
